{"source": "patent US10363320B2", "about": "“Conjugate comprising oxyntomodulin and an immunoglobulin fragment, and use thereof” (HANMI SCIENCE CO., LTD, priority 2011, dated 2019)", "key": {"[1]": {"details": "taken for 1 year; cited from earlier work"}, "[2]": {"details": "in vivo; cited from earlier work"}, "human GLP-1 receptor": {"molecular_target": "T1, human GLP-1 receptor (Homo sapiens, UniProt P43220)", "T1 construct": "host or cells: CHO DG44", "T1 sequence (P43220 24-463)": "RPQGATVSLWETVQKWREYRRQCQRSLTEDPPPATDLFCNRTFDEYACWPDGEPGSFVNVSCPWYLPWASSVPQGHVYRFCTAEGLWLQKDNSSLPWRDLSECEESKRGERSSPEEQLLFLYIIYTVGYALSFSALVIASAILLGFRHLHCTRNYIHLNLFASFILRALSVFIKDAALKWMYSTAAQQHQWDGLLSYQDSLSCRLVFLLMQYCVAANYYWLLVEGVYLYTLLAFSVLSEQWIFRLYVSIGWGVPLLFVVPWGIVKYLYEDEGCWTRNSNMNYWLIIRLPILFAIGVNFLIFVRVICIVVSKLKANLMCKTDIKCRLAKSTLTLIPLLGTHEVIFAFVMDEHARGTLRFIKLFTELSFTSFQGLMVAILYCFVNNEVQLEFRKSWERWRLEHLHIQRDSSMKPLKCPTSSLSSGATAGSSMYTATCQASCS", "assay": "cAMP response in CHO cell line expressing human GLP-1 receptor (CHO/GLP-1R)", "format": "cell-based", "details": "Table 3, Fc conjugates, GLP-1, glucagon, 37° C. for 1 hour", "procedure": "The PCR product was cloned into the known animal cell expression vector x0GC/dhfr to prepare a recombinant vector x0GC/GLP1R.\nCHO DG44 cell line cultured in DMEM/F12 (10% FBS) medium was transfected with the recombinant vector x0GC/GLP1R using LIPOFECTAMINE® (INVITROGEN®, USA), and cultured in a selection medium containing 1 mg/mL G418 and 10 nM methotraxate.\n(§1) The cultured cells were washed with KRB buffer and suspended in 40 ml of KRB buffer containing 1 mM IBMX, and left at room temperature for 5 minutes. […] Then, 20 mL of cell lysis buffer was added for cell lysis, and the cell lysates were applied to a cAMP assay kit (Molecular Device, USA) to measure cAMP concentrations. EC50 values were calculated therefrom, and compared to each other.\n(§2) Each of the cultured transformants was washed with KRB buffer and suspended in 40 ml of KRB buffer containing 1 mM IBMX, and left at room temperature for 5 minutes. […] Then, 20 ml of cell lysis buffer was added for cell lysis, and the cell lysates were applied to a cAMP assay kit (Molecular Device, USA) to measure cAMP concentrations using a Victor (PERKIN ELMER®, USA). EC50 values were calculated therefrom, and compared to each other (Table 3)."}, "human glucagon receptor": {"molecular_target": "T2, human glucagon receptor (Homo sapiens, UniProt P47871)", "T2 construct": "host or cells: CHO DG44", "T2 sequence (P47871 26-477)": "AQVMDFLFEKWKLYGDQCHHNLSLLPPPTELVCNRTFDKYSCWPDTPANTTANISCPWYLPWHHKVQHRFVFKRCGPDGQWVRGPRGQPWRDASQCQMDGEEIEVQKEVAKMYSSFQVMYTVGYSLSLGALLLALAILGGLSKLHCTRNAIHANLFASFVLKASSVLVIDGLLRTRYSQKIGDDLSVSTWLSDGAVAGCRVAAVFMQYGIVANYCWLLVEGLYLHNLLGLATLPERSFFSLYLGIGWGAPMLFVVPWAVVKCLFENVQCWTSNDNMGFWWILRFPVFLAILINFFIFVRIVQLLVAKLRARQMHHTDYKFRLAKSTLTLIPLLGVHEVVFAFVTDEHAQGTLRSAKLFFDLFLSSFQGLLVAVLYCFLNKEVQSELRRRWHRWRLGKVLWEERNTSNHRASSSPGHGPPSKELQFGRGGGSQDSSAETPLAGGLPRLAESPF", "assay": "cAMP response in CHO cell line expressing human glucagon receptor (CHO/GCGR)", "format": "cell-based", "details": "Table 3, Fc conjugates, GLP-1, glucagon, 37° C. for 1 hour", "procedure": "The PCR product was cloned into the known animal cell expression vector x0GC/dhfr to prepare a recombinant vector x0GC/GCGR.\nCHO DG44 cell line cultured in DMEM/F12 (10% FBS) medium was transfected with the recombinant vector x0GC/GCGR using LIPOFECTAMINE®, and cultured in a selection medium containing 1 mg/mL G418 and 10 nM methotraxate.\nas §1, §2"}}, "data": [{"compound": "CCCCCCCCCCC[C@@H](C[C@@H]1OC(=O)[C@H]1CCCCCC)OC(=O)[C@H](CC(C)C)NC=O", "note": "[Orlistat]", "values": [{"measurement": "weight loss", "setting": "[1]", "result": 4, "unit": "kg"}]}, {"compound": "Cc1c(C(=O)NN2CCCCC2)nn(-c2ccc(Cl)cc2Cl)c1-c1ccc(Cl)cc1", "note": "[Rimonabant]", "values": [{"measurement": "side-effect", "setting": "[2]", "result": "side-effect of central nerve disorder"}]}, {"compound": "CC(C)CC(N(C)C)C1(c2ccc(Cl)cc2)CCC1", "note": "(stereo not drawn) [Sibutramine]", "values": [{"measurement": "side-effect", "setting": "[2]", "result": "cardiovascular side-effects"}]}, {"compound": "SEQ ID NO. 23 - Fc conjugates: conjugate of oxyntomodulin derivative (SEQ ID NO. 23), cysteine 24, MAL-10K-ALD PEG and immunoglobulin Fc (HXQGTFTSDYSKYLDEKRAKEFVCWLMNT; not fully specified; conjugate chemistry not built; chains of the parent or of the whole protein)", "values": [{"measurement": "EC50", "setting": "human GLP-1 receptor", "result": 5.4, "unit": "nM"}, {"measurement": "EC50", "setting": "human glucagon receptor", "result": 15.8, "unit": "nM"}]}, {"compound": "SEQ ID NO. 33 - Fc conjugates: conjugate of oxyntomodulin derivative (SEQ ID NO. 33), cysteine 30, MAL-10K-ALD PEG and immunoglobulin Fc (HXQGTFTSDYAKYLDEKRAKEFVQWLMNTC; conjugate chemistry not built; chains of the parent or of the whole protein)", "values": [{"measurement": "EC50", "setting": "human GLP-1 receptor", "result": 11.7, "unit": "nM"}, {"measurement": "EC50", "setting": "human glucagon receptor", "result": 85.9, "unit": "nM"}]}, {"compound": "SEQ ID NO. 34 - Fc conjugates: conjugate of oxyntomodulin derivative (SEQ ID NO. 34), cysteine 30, MAL-10K-ALD PEG and immunoglobulin Fc (YXQGTFTSDYSKYLDEKRAKEFVQWLMNTC; conjugate chemistry not built; chains of the parent or of the whole protein)", "values": [{"measurement": "EC50", "setting": "human GLP-1 receptor", "result": 168, "unit": "nM"}, {"measurement": "EC50", "setting": "human glucagon receptor", "result": 8, "unit": "nM"}]}]}
